# Reference: the RNAGym collection of RNA variant scans (doi:10.1073/pnas.2313332121)
# B1: TPR t1 (parent)
# chain: GACCAAUCUGCCCUCAGAGCUCGAGAACAUCUUCGGAUGCAGAGGAGGCAGGCUUCGGUGGCGCGAUAGCGCCAACGUCCUCAACCUCCAAUGCAUCCCACCACAUGAUGAUGCCUGAAGAGCCUUGGUUUUUUG
# Variants of: B1
# Test: polymerase ribozyme fitness, log enrichment relative to wild type (log ratio); higher = more active; in vitro selection for triplet polymerase activity
# How it was run: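 Only genotypes with ≥10 input reads and ≥1 read per output were kept after Illumina sequencing of input and output libraries. These libraries were PCR-built, transcribed mutants of each subunit of a heterodimeric triplet polymerase ribozyme, each put through one triplicate in vitro selection round with frozen incubation at −7 °C, gel excision of extended constructs, streptavidin-bead capture and RT-PCR. Fitness is a logarithmic ratio of genotype enrichment to wild-type enrichment, from inverse-variance-weighted replicate averages, with the logarithm in base 2.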
row,Variant,polymerase ribozyme fitness (log ratio)
1,C28G G60U U130G,-2.82
2,C28G G61A G113C,-5.25
3,C28G G93A,-3.77
4,C28G U54A G122U,-2.85
5,C28G U54G C97U U130A U131C,-3.57
6,C28U A41U G48A,-5.18
7,C28U A83C,-2.54
8,C28U C31A C85G A119G G120A,-7.42
9,C28U C34U C73G C102U G110A,-0.0797
10,C28U C40G G48U C85A,-3.6
11,C28U C49A C72A C114G,-5.7
12,C28U C49A G61U C86U,-2.72
13,C28U C49G A91U U106A,-5.37
14,C28U C56U,-1.85
15,C28U C62A,-2.73
16,C28U C62U G69U,-1.04
17,C28U C64U G93U,-3.83
18,C28U C70A,-4.5
19,C28U C73A,-2.23
20,C28U C80A,-5.53
21,C28U C80U A90G C124G,-0.852
22,C28U C82A C94A U125G,-4.37
23,C28U C101G,-5.15
24,C28U C115U,-3.6

row,Variant,polymerase ribozyme fitness (log ratio)
1,C28U G39A,-2.12
2,C28U G39C C56G C104U,-5.32
3,C28U G39U A111C,-6.59
4,C28U G42C,-3.36
5,C28U G44U C49U G63C G110A,-2.74
6,C28U G44U C62U G63C G110C U126A U132C,-4.61
7,C28U G45U C114U,-4.18
8,C28U G47C C73A C97U,-3.8
9,C28U G52C C56G G120A,-2.52
10,C28U G52U C73G U78G G120U,-4.03
11,C28U G52U G120C,-2.81
12,C28U G57U C86A A90G G93U U96G G113C A121U,-7.69
13,C28U G60C,-3.11
14,C28U G61A,-1.12
15,C28U G61C,-4.7
16,C28U G63C,-3.08
17,C28U G69U,-0.614
18,C28U G71C U87G,-3.85
19,C28U G71U,-2.6
20,C28U G71U C82A,-3.3
21,C28U G110A,0.874
22,C28U G135U,-2.44
23,C28U U32A C70U G120C,-6.64
24,C28U U106A,-0.471

row,Variant,polymerase ribozyme fitness (log ratio)
1,C28U U112A G122A U129A,-6.54
2,C28U U112C U116A,-1.82
3,A29C A37G,-2.11
4,A29C A41C C56G U59A G69U C82U A121C G135C,-6.04
5,A29C A41G,-2.15
6,A29C A41U C64U,-3.54
7,A29C A46U U54G U78C G120U,-3.43
8,A29C A75G U78G,-2.56
9,A29C A90G G113U C114U,-3.29
10,A29C C40U A41U C124U,-3.03
11,A29C C49U C72U,-4.03
12,A29C C53G A111U,-1.63
13,A29C C62G,-4.52
14,A29C C102A U109G,-2.1
15,A29C G36U G45U,-4.64
16,A29C G39A A50U G52A U112C,-5.09
17,A29C G44C U92C,-5.1
18,A29C G57A C62U,-3.66
19,A29C G61A A75U,-1.75
20,A29C G61U C70U A75G U78G,-3.77
21,A29G A37G A84G G110U A121G,-3.06
22,A29G A37G C40U G61C G127U,-4.48
23,A29G A37G C88U A111C,-0.788
24,A29G A43C,-3.7

row,Variant,polymerase ribozyme fitness (log ratio)
1,A29G A46U G69U C86U,-2.23
2,A29G A66G,-1.88
3,A29G A74U,-1.73
4,A29G A90C U92C,-3.09
5,A29G A95G,-1.84
6,A29G A105C,-7.42
7,A29G C31G G63A A100U A121C,-7.06
8,A29G C40A A41U U92G,-4.59
9,A29G C40U,-2.17
10,A29G C49A,-1.64
11,A29G C49G G57C A121C,-0.725
12,A29G C49U A119U G120A C123A,-2.51
13,A29G C53G U106A G117C,-3.33
14,A29G C56G A91C U112A A121G G122C,-2.1
15,A29G C56U,-1.17
16,A29G C62A,-2.33
17,A29G C64U C104A U106A U112C,-0.729
18,A29G C73A C76A,-3.61
19,A29G C73U C114A,-1.97
20,A29G C79G,-2.5
21,A29G C97A,-5.53
22,A29G C101A A118U,-3.6
23,A29G C101G,-4.66
24,A29G C102A,-4.16

row,Variant,polymerase ribozyme fitness (log ratio)
1,A29G C104U U112G,1.06
2,A29G C115U U126G,-3.15
3,A29G G47A U55A C56G,-2.62
4,A29G G47C C53A U59A,-2.24
5,A29G G48U G57C C73U,-1.71
6,A29G G51U U55A G57U,-3.55
7,A29G G52U,-1.55
8,A29G G57U G128C,-3.73
9,A29G G58C,-1.5
10,A29G G58U U59A,-1.29
11,A29G G60U A84C C94U U106A G120A U125G,-0.963
12,A29G G61C,-2.51
13,A29G G61U C85A C102U,-5.28
14,A29G G63A,-1.9
15,A29G G63C C104U U106G,-1.63
16,A29G G69A A75U C104U U112G,-4.35
17,A29G G69C G120A,-2.54
18,A29G G71A,-1.75
19,A29G U32A U55C,-5.1
20,A29G U32C A50U C73U,-2.14
21,A29G U87A,-1.67
22,A29G U87A C104G A111U,-4.03
23,A29G U130G,-1.15
24,A29U A41C,-2

row,Variant,polymerase ribozyme fitness (log ratio)
1,A29U A41C A119G C123G,-1.43
2,A29U A43C G44U C53G A111U U134A,-0.68
3,A29U A46C,-3.27
4,A29U A46C G48A A84C,-3.31
5,A29U A46G C115G,-2.96
6,A29U A46U U106A,-2.03
7,A29U A83U C86A C114A A118U,-3.87
8,A29U A84C U87C U112C,-0.813
9,A29U A119G,-0.662
10,A29U C49G C73U C76U C94A,-3.55
11,A29U C53A,-1.37
12,A29U C53A U129G,-2.03
13,A29U C53U C56U G69U G93C,-3.98
14,A29U C53U C72G A83U U96A,-4.12
15,A29U C56G G58C G77A C88U G120C C123G U129A,-5.14
16,A29U C56U A74U A100C,-3.55
17,A29U C56U C73U,-1.33
18,A29U C62G U81C A100U C124A,-3.66
19,A29U C70G,-3.31
20,A29U C72U C102U,-5.4
21,A29U C79A,-3.06
22,A29U C88U,-1.36
23,A29U C94A C102G U109C U130C,-6.22
24,A29U C98U,-3.59

row,Variant,polymerase ribozyme fitness (log ratio)
1,A29U C99U U106A,-4.1
2,A29U G42C G69U A119U,-2.46
3,A29U G45A G47U,-4.18
4,A29U G48A G63C A111C,-2.36
5,A29U G48C,-2.86
6,A29U G48C C53U,-3.4
7,A29U G51C G120U,-3.96
8,A29U G52C C73G U129A,-4.18
9,A29U G58A U106A,-1.28
10,A29U G61A C73U,-1.74
11,A29U G61C,-2.79
12,A29U G61C C72A,-1.68
13,A29U G63A,-2.41
14,A29U G69U C123A,-0.777
15,A29U G71A G135C,-2.1
16,A29U G93A,-2.13
17,A29U G117C,-3.48
18,A29U U38G G45U G120A U129A,-4.85
19,A29U U54G,-2.02
20,A29U U109G G122A,-1.47
21,A29U U126C,-2.33
22,U30A A37U,-4.9
23,U30A A111U,-4.14
